Test results as given in patent US11298402B2, “Lysosomal degradation of lipids and proteins and method of use thereof” (University of Ottawa, priority 2015, dated 2022).
Where a chain is given by its changes, count along the chain named. Names and notes keep the numbering of the source. “Also recorded” adds a separate entry of the source.

B1: Arl8b^T34N: putative GDP-bound, dominant negative Arl8b mutant (Thr-to-Asn at 34; SEQ ID NO: 12), expressed from plasmid or adenovirus Adv-MG1023; tagged forms used (protein)
chain: MLALISRLLDWFRSLFWKEEMELTLVGLQYSGKNTFVNVIASGQFSEDMIPTVGFNMRKVTKGNVTIKIWDIGGQPRFRSMWERYCRGVNAIVYMIDAADREKIEASRNELHNLLDKPQLQGIPVLVLGNKRDLPNALDEKQLIEKMNLSAIQDREICCYSISCKEKDNIDITLQWLIQHSKSRRS
modifications: GFP/RFP tags in some forms; T34N substitution, GDP-binding
notes: tagged forms used
B2: Arl8b^Q75L: putative GTP-bound, dominant active Arl8b mutant (Gln-to-Leu at 75; SEQ ID NO: 13), expressed from plasmid or adenovirus Adv-MG1022; tagged forms used (protein)
chain: B1 chain with N34T, Q75L
modifications: GFP/RFP tags in some forms; Q75L substitution, GTP-binding
notes: tagged forms used

Key:
[1] = test system: McA-RH7777 cells (A18-C3); test: Live imaging of lysosomal motility and lysosome-CLD interaction (kiss-and-run); type: cell-based, rat; conditions: for lysosomal adherence to / dissociation from CLD (the off phase): Arl8b-expressing cells, EPA
[2] = test system: primary neurons from parkinsonian mice; test: Lysosome and cell morphology in Parkinson's disease primary neurons; type: cell-based, mouse
[3] = test system: McA-RH7777 cells (A18-C3); test: Immuno-EM of Arl8b organellar association; type: cell-based, rat; conditions: RFP-tagged Arl8b in transfected cells, 1 h post-EPA
Procedure: For immunogold labeling, pellets of cells cultured in media containing OA or EPA (0.4 mM) were fixed with 0.5% glutaraldehyde and 4% paraformaldehyde in 0.1 M phosphate buffer (pH 7.4) and dehydrated through a series of graded ethanol dilutions, and embedded in LR White acrylic resin (London Resin Company). Ultrathin sections (80 nm) were placed on Formvar-coated nickel grids. For post-embedding immunolabeling, the sections were incubated with an anti-Arl8b antibody (Fitzgerald) for 1 h. For ^RFPArl8b-transfected cells, that primary antibody used was anti-RFP (Abcam). After washing with 0.2 M sodium cacodylate buffer containing 0.1% calcium chloride, pH 7.4, the samples were incubated with the secondary antibody conjugated with 10-nm gold particles. To increase contrast, the ultrathin sections were stained with 2% uranyl acetate for 6 min and Reynold's lead for 5 min. The grids were examined with a Tecnai 12 120 kV TEM as described above.

[4] = test system: McA-RH7777 cells stably expressing human apoB-100 and human apoC-III (A18-C3); type: cell-based; conditions: for effect on EPA-induced lipid degradation (CLD turnover): cells silenced, transfected or pre-treated, then EPA 0.4 mM, 6 h
Procedure: In certain non-limiting examples described herein, McA-RH7777 cells stably expressing human apoB-100 and human apoC-III (designated A18-C3) were used for the studies. […] In addition, these studies, particularly those concerning EPA- or DHA-triggered lysosomal motility and CLD degradation, were also performed using primary rat hepatocytes. Transfection of plasmids encoding proteins of interest, or transfection of siRNA specific for silencing target gene expression, was achieved using the FuGENE HP Extreme reagent (Roche). Representative gene silencing siRNA sequences, which are not meant to be limiting, are described in Table 1, and plasmids encoding proteins of interest are described in Table 2. The effectiveness of siRNA silencing was verified by Western-blotting of cellular content of the target proteins, and by intracellular localization assay using siRNA-Tracker (Mirus Bioscience). Twenty-four h after plasmid transfection, or 48 h after siRNA transfection, the cells were cultured in lipid-rich media containing fetal bovine serum (20%) and OA (0.4 mM). The lipid-laden cells were switched to fresh media supplemented with OA or EPA (0.4 mM). In live imaging experiments, LipidTOX Red (Life Technologies) and LysoTracker (Life Technologies) were added to media prior to EPA treatment, to visualize lipid droplets and lysosomes, respectively. For visualizing peroxisomes, Peroxisome-GFP (Invitrogen) was introduced to the cells 24 h prior to experiments. Quantification of cell lipid contents was achieved either by direct mass measurement (HPTLC) and counting the number of lipid droplets using Image J Lipid Droplet Counter Plug-In, or indirectly by Western blot analysis of cellular content of ADRP. Secretion of apoB and TG-rich lipoprotein was determined by Western blot analysis and metabolic labeling. Mitochondrial β-oxidation was measured using MitoSOX Red (Life Technologies) in situ. Autophagic flux was determined by using Cyto-ID assay (Enzo Life Science) and by monitoring GFP-LC3 clustering in situ. Interaction of Arl8b and subunits of the HOPS complex was determined in situ by the proximity ligation assay (Olink Biosience). Cytoplasmic pH was measured using the cytosolic pHrodo indicator reagent (Invitrogen). Live imaging of fluorescent-tagged proteins was performed 1 h post-EPA treatment. Cells were also collected at the time of EPA treatment for transmission EM and tomography, as well as immuno-EM. For movies, cells were imaged at 60 sec intervals every 5 min, for a total of 30 min.
The A18-C3 cells were cultured in DMEM (Invitrogen) supplemented with fetal bovine serum (20%), penicillin (50 U/mL), streptomycin (50 μg/mL, Invitrogen) and Geneticin/G418 (500 μg/mL, Gibco) at 37° C. in 5% CO2. Transfection was conducted when cells were 60-70% confluence. Appropriate plasmids were mixed with FuGENE HP extreme reagent (Roche Diagnostic), according to manufacturer's protocol, and incubated for 30 min. Twenty-four h after transfection, cells were switched to lipid-rich media containing OA (0.4 mM) for additional 16 h prior to imaging and biochemical analysis. In silencing experiments, appropriate siRNAs were transfected into cells using the X-treme GENE siRNA regent (Roche Diagnostic). Localization of siRNA in transfected cells in situ was carried out using the Cy5 Label IT-siRNA Tracker (Minis Bioscience #7213) according to manufacturer's protocol. Forty-eight h after transfection, cells were switched to lipid-rich media containing OA (0.4 mM) for additional 16 h prior to imaging and biochemical analysis.
Quantification of lipid droplets was carried out using confocal and differential interface contrast (DIC) microscopy. Lipid droplets were stained with LipidTOX Red (Invitrogen) before adding OA or EPA. All images were visualized using a 63× oil immersion objective lens. Z-series stacks were acquired with 0.2 μm steps. […]

hepatic cells = test: Hepatic glucose uptake (fluorescent 2-NBDG assay); type: cell-based; conditions: transfected cells treated with EPA
[5] = transfection of PD primary neurons

| Molecule | lysosomal adherence to / dissociation from CLD (the off phase) [1] | axonal swelling and degeneration in PD primary neurons [2, 5] | lysosomal phenotype (ring shape structure) in PD primary neurons [2, 5] | organellar association (lysosome vs CLD) [3] | lipid content of lipid-laden cells without addition of EPA ([4]; OA-treatment conditions, transfected cells) | effect on the inhibition of microautolipophagy by Vps41 and GTP-bound Arl8b ([4]; cell culture studies) | effect on EPA-induced lipid degradation (CLD turnover) [4] | glucose uptake (hepatic cells) | lysosomal adherence to / dissociation from CLD (the off phase) ([1]; listed as GFP::Arl8b^Q75L) | effect on EPA-triggered lysosomal motility / lysosomal interaction with CLD ([1]; cells silenced, transfected or pre-treated (15 min) before EPA) | lysosomal phenotype of normal primary neurons ([2]; transfection of normal primary neurons) |
| --- | --- | --- | --- | --- | --- | --- | --- | --- | --- | --- | --- |
| B1 | fastened | restored axonal swelling and degeneration; also recorded: restore axons | cleared the ring shape structure of lysosomes | mainly CLD-borne | lipid content is lowered | can override the inhibitory effect of Vps41 and a GTP-bound form of Arl8b on microautolipophagy | accelerated | increased rate of glucose uptake |  |  |  |
| B2 | no disassociation of lysosomes from CLD occurred |  |  | predominately associated with lysosomes |  |  | completely blocked | virtually abolished glucose uptake | prolonged lysosomal adherence to CLD | higher incidence of direct lysosome-lipid droplet interaction | converts normal neuronal lysosomes to PD primary neuron phenotype |
